Results as given in patent publication CN1709911A.

Key:
[1] = molecular target: Raji肿瘤细胞核抗原 (Raji肿瘤细胞核提取物 / 固定Raji细胞); assay: flow cytometry on paraformaldehyde-fixed Raji cells; 5 ul of 1 mg/ml, anti-human IgG-FITC; first of three values
[2] = molecular target: Raji肿瘤细胞核抗原 (Raji肿瘤细胞核提取物 / 固定Raji细胞); assay: antigen binding activity, table 2; this molecule is the reference; method not described
[3] = molecular target: Raji肿瘤细胞核抗原 (Raji肿瘤细胞核提取物 / 固定Raji细胞); assay: flow cytometry on paraformaldehyde-fixed Raji cells; 5 ul of 1 mg/ml, anti-human IgG-FITC; third of three values
[4] = molecular target: Raji肿瘤细胞核抗原 (Raji肿瘤细胞核提取物 / 固定Raji细胞); assay: flow cytometry on paraformaldehyde-fixed Raji cells; 5 ul of 1 mg/ml, anti-human IgG-FITC; second of three values
[5] = molecular target: Raji肿瘤细胞核抗原 (Raji肿瘤细胞核提取物 / 固定Raji细胞); assay: antigen binding activity, table 2, against rhTNT-IL2 (IgG1) as control; method not described

Substance | 融合蛋白抗原结合活性 [5] | other results
rhTNT-IL2融合蛋白 (重组人肿瘤坏死治疗单抗-白细胞介素2融合蛋白, IgG1, 连接肽AAAGGGS, 全长IL2) (antibody) |  | 特异结合活性 [1]: 98.2%; 融合蛋白抗原结合活性 [2]: 100%; 特异结合活性 [3]: 98.6%; 特异结合活性 [4]: 98.3%
肿瘤坏死治疗单抗-白细胞介素2融合蛋白, IgG1重链恒定区, IL2(Q22-C58) (antibody) | 100% | 
肿瘤坏死治疗单抗-白细胞介素2融合蛋白, IgG2重链恒定区, IL2(Q22-C58) (antibody) | 100% | 
肿瘤坏死治疗单抗-白细胞介素2融合蛋白, IgG2重链恒定区, 全长IL2 (antibody) | 100% | 
肿瘤坏死治疗单抗-白细胞介素2融合蛋白, IgG3重链恒定区, IL2(Q22-C58) (antibody) | 100% | 
肿瘤坏死治疗单抗-白细胞介素2融合蛋白, IgG3重链恒定区, 全长IL2 (antibody) | 100% | 
肿瘤坏死治疗单抗-白细胞介素2融合蛋白, IgG4重链恒定区, IL2(Q22-C58) (antibody) | 100% | 
肿瘤坏死治疗单抗-白细胞介素2融合蛋白, IgG4重链恒定区, 全长IL2 (antibody) | 100% | 
